In experiment [1] the target is SHPTP1 (endogenous, activated human T cells) (human, UniProt P29350 1-595, limits assumed). The experiment is described as follows: co-immunoprecipitation with 8C93D8 from activated human T cell lysates, Western blot. As to the method:
(§1) To identify the protein tyrosine phosphatase associated with CD2BP1, activated human T cells were disrupted in lysis buffer at 30 ×10^6/ml and the supernatant collected as described above. After preclearing with control beads (CNBr activated beads linked to nonspecific mouse IgG at 5 mg/ml, Sigma) overnight, the supernatant was diluted to 10 ×10^6 cells/ml in lysis buffer containing 0.1% bovine serum albumin (BSA). CD2BP1 and any associated molecules were immunoprecipitated by incubation at 4° C. for 3 h with CNBr beads coupled to either anti-CD2BP1 mAb 8C93D8 or, as a control, nonspecific mouse IgG. After two washes in lysis buffer and one wash in TBS, the immunocomplexes on the beads were eluted by heating at 65° C. for 20 min in SDS sample buffer and subjected to 12.5% reducing SDS-PAGE. After electrophoresis, proteins on the gel were transferred to nitrocellulose for Western blotting. The membranes were then probed with different primary antibodies: rabbit anti-human PTP-PEST (CSH8) 1:1000 (Garton and Tonks, 1994), rabbit anti-human FLP (aEN12) 1:1000 (Dosil et al., 1996), goat anti-human SHPTP1 (Santa Cruz) 1:100, rabbit antihuman SHPTP2 (Santa Cruz) 1:100, followed by washing and incubation with the secondary HRPO-conjugated goat anti-rabbit antibody (1:5000) or donkey anti-goat antibody (Santa Cruz) 1:2000, and signals developed by ECL. […]

The target of experiment [2] is T1, SHPTP2 (endogenous, activated human T cells) (human, UniProt Q06124 2-593).
T1 sequence (looked up): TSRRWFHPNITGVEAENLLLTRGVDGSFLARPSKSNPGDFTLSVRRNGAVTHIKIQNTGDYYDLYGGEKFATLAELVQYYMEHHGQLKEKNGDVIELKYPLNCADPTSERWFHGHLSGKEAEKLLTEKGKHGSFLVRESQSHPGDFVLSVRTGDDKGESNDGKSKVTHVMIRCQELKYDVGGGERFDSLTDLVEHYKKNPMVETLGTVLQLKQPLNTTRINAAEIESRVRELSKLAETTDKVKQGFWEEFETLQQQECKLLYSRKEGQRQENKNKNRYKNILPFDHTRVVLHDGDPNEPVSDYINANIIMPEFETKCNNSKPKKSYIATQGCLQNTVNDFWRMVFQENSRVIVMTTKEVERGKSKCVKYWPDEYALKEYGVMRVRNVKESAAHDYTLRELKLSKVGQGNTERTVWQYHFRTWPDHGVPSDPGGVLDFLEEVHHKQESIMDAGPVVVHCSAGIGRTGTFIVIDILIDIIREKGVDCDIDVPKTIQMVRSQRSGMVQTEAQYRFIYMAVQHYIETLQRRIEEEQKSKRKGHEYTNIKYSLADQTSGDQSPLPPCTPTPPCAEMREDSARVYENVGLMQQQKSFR
The description is as above. On the procedure:
as §1

Chain of SHPTP1 (endogenous, activated human T cells) (P29350 whole entry): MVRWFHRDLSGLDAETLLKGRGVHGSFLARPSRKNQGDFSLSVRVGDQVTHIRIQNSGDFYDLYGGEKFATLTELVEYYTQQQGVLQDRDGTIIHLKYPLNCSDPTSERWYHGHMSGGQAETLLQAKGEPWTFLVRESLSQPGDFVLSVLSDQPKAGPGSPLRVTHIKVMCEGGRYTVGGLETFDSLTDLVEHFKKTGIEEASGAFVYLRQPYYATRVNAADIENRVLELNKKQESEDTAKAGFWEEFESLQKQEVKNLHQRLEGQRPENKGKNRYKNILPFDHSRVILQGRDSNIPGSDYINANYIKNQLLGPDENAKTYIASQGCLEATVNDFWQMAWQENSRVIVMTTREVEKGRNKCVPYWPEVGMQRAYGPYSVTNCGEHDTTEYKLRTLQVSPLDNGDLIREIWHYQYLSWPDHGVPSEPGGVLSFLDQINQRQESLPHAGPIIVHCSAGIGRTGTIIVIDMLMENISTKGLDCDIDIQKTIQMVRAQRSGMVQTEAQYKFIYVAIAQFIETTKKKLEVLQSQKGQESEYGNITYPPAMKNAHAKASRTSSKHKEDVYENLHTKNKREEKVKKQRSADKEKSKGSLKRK

B1: CD2BP1 protein (endogenous, activated human T cells) (other)
chain: MMPQLQFKDAFWCRDFTAHTGYEVLLQRLLDGRKMCKDMEELLRQRAQAEERYGKELVQIARKAGGQTEINSLRASFDSLKQQMENVGSSHIQLALTLREELRSLEEFRERQKEQRKKYEAVMDRVQKSKLSLYKKAMESKKTYEQKCRDADDAEQAFERISANGHQKQVEKSQNKARQCKDSATEAERVYRQSIAQLEKVRAEWEQEHRTTCEAFQLQEFDRLTILRNALWVHSNQLSMQCVKDDELYEEVRLTLEGCSIDADIDSFIQAKSTGTEPPAPVPYQNYYDREVTPLTSSPGIQPSCGMIKRFSGLLHGSPKTTSLAASAASTETLTPTPERNEGVYTAIAVQEIQGNPASPAQEYRALYDYTAQNPDELDLSAGDILEVILEGEDGWWTVERNGQRGFVPGSYLEKL
notes: Endogenous protein
Turning to B1, the binding result in experiment [1] and in experiment [2] was “no binding” throughout.

For the origin of these results see US6689868 (Dana-Farber, dated 2004).
